The series is described as follows: amyloid nucleation score (Sup35N fusion, yeast selection) (log enrichment); library NNK3; higher = more nucleation; inactive = no reads after selection. A digest of the protocol: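 Psi-negative yeast expressed Sup35N fused to peptides of 20 random codons. They were induced 24 hours with 100 μM copper sulfate, grown 7 days at 30°C without adenine and uracil, and their plasmid inserts from input and output were Illumina-sequenced. The nucleation score is the DiMSum log enrichment of output over input reads, centred on the mode score of non-aggregating sequences. Sequences with under 100 input reads were excluded.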

± gives the uncertainty stated by the source.

With INRDYSVIVSGSYHHSSLTE, the amyloid nucleation score entry is “inactive”.

IGLSLE: the amyloid nucleation score entry was “inactive”. For WFSSKRDLR the value was “inactive”. Then GTQVYTGGRVYERLRVMSCV, with “inactive”; and TMLVFGIVNTLVVDNLRSSI, with 2.01 ± 0.094; and CLNFFPSNSWILFILMIVQK, with “inactive”. Then VWNVQSFQ, with “inactive”; and GYVVQIMFYILVVHTTWSSA, with -0.451 ± 0.98; and MIFNVDGLDLVPDKVRYYRD, with “inactive”. LAYVHMGGIARWLC: the amyloid nucleation score result was “inactive”. For GLLANWYVQH the value was “inactive”; for SRLEGIAGVKKGVMVNQKRL, “inactive”; for VAGSLVAKP, “inactive”. Then MRTINIS, with “inactive”; and RNANSNWSRPVLNAWSLNEV, with “inactive”; and AYSFNSFRASGRHLWFTVCP, with “inactive”.

With QYCVIMWPCIYFRVTFSF, the amyloid nucleation score result was “inactive”. Then IGRNSSKIFLFFCSCMRMFS, with 2.95 ± 0.077; and GCLECL, with “inactive”. Turning to RKMDLVDKSMSTIGYLAHHG, the amyloid nucleation score is -0.63 ± 0.82. Turning to SGQSNDCVMDVWMDM, the amyloid nucleation score entry was “inactive”. Then WCFWNSC, with “inactive”. For CFCDVMQFWM the value was 2.4 ± 0.067. On to DKDRVVSCMMTLLLSVGCAV, for which the amyloid nucleation score entry was “inactive”.

NYSRPEL showed an amyloid nucleation score of 0.782 ± 0.17. For YLLFMYFLLSSCCSLPALPM the value was 1.4 ± 0.12; for LHYKCNDVHQNGMLELCYLN, “inactive”; for CNVNIHYFGTV, “inactive”. As to FYMDWTGHLQKFNP, the amyloid nucleation score entry was “inactive”. In turn, CTYDSLRILAYRANQTNWFQ returned an amyloid nucleation score of -0.278 ± 0.47. Take RTLAIRYSSNPLTIRLLQSL: the amyloid nucleation score entry is “inactive”. Then YIARCVVTSLVLNKTCMRIY, with “inactive”; and KGCVRSGQIWLRCIWSQYP, with “inactive”; and LSRGFYAS, with “inactive”. Then LKRNVNYVNLNVFRLFLK, with “inactive”; and FIGVKQTRKLNTFCLGSWLM, with -0.061 ± 0.66; and VSRGDTINIISSVDCVKTYF, with “inactive”. Then VSVCLKELHQ, with “inactive”. Take FVEAANNSFCYESSNIT: the amyloid nucleation score entry was “inactive”.

As for RFGFSVKFMYDDGMSAVCTS, the amyloid nucleation score entry was “inactive”.

As to LIGCVLGSLFLRDIFIYCLM, the amyloid nucleation score turned out to be 0.409 ± 0.67. For SPLYGYGDKRQVRYLLTGSC the value was “inactive”. Then HVYNLLRVVF, with “inactive”; and NGFVI, with “inactive”. For ALGKRSLLR the value was “inactive”. KFFYCERVLSGNRVKRHERI came in with an amyloid nucleation score of 0.676 ± 0.21.

Turning to YCTWAYRVYSYSGCTMMIVL, the amyloid nucleation score result was “inactive”. Then DGLIECWDFNRIMGLNKQNK, with -1.33 ± 1.9; and SDRSA, with “inactive”. For QFIWRLLRDSTKNFTLLSYK, the amyloid nucleation score result was “inactive”. SGSVNIHSWCGFNSWT: the amyloid nucleation score result was “inactive”. For LSWSGNSSAYKSIIR the value was “inactive”; for VRLTLIRSLRARRDGEDSKM, “inactive”; for RDVWDYSREHLYNDDFLIGA, -0.422 ± 0.75. Then NASLI, with “inactive”; and NCCNPCFVNLQSR, with 2.66 ± 0.066; and RLWYGTYWFT, with “inactive”. Then PRWETSYLIL, with “inactive”; and RLYDIVCYSTVVL, with 1.99 ± 0.074. On to KFWLKVHFYEHKWSWVMFEC, for which the amyloid nucleation score result is “inactive”. For INSWIPWWLERKWSWHLASI the value was “inactive”; for GKVVVN, “inactive”; for GVTQVIWVAYNILFLNNCWM, “inactive”. Then HPLAAGHGVYFSSCIFK, with 1.7 ± 0.097; and RGSSTIYNETGLLGRLKGM, with “inactive”; and QQHDELCGVHMGSGHF, with “inactive”. For CLSRSCSFFYKATYLRSEMM the value was “inactive”.

With VDSSMDLHSIS, the amyloid nucleation score result was “inactive”. RWSVLILNPPISKKHPDDK displayed an amyloid nucleation score of 0.345 ± 0.69.

Turning to GWKFMREYSKRIGSSSPVVY, the amyloid nucleation score result was “inactive”.

In the case of VCNIAQ, the amyloid nucleation score result was “inactive”. Then AWFTEVYFKPSFRKR, with “inactive”; and CVTSVAWANKICARQLFGAD, with 0.204 ± 0.37; and VARGNMCNL, with “inactive”.

Consider LGSLPGGETLHCLNRFQRLS, for which the amyloid nucleation score entry is “inactive”. For WVRRYV the value was “inactive”; for MYLDIESDMSNTGAE, “inactive”. Then TFCGFKP, with “inactive”; and WMFRSAVFYGYVYALGCMRS, with 0.924 ± 0.22. In turn, TVSKANWVLLEFLTFCGMI gave an amyloid nucleation score of 1.74 ± 0.096. Turning to HYMFSVVNVSGDCFFLSESN, the amyloid nucleation score was 3.24 ± 0.071. Then KIWFCNWFANNYFMIANSST, with 0.627 ± 0.11; and AVVIGDDEVVSDYCLLL, with 0.377 ± 0.27; and TGSVFVKDGTLWPTCVDLIG, with “inactive”. Then CSNAGTCPCLCYRAILDQWV, with -0.401 ± 0.84; and WVIIIYRYLFRNISAKQSRL, with “inactive”. With VGPRGGNVSEGPPRVWVNGC, the amyloid nucleation score result was “inactive”. For NRVYA the value was “inactive”; for TLAIGLIDEFRLHA, 1.09 ± 0.13; for GNTVEGKLE, “inactive”.

Consider CNFVNSKRNFLYTLG, for which the amyloid nucleation score entry was “inactive”. Then SVLLHLNRNVMWTMPSRGAF, with “inactive”; and MGNLVNSNVGSTLSKKIRND, with 0.351 ± 0.35; and AKSPL, with -0.681 ± 0.96.

CCVSVKYWYYV had an amyloid nucleation score of 2.18 ± 0.058. For the substance VCSMWSSSSMIKLRALDDYM, the amyloid nucleation score entry is “inactive”.

For LVTFFSGRYGHWWLDNCWRQ, the amyloid nucleation score entry was “inactive”.

For the substance VCCFWVVDIKILFSGLPISS, the amyloid nucleation score was determined as 2.28 ± 0.069. Turning to VSVIWSMMCIRIITISCGRV, the amyloid nucleation score result was “inactive”. For MFCMYTRDREIYLVETLLYV the value was “inactive”; for MAIFKLFVPFIFLIEFCYMV, “inactive”. Then RYGDWLHHS, with “inactive”.

On to DIFTPILMLCWV, for which the amyloid nucleation score entry is “inactive”.

TIFFMYWLSPGFSPPI registered an amyloid nucleation score of 0.148 ± 0.39. For SYGALLNGYGGKSSAPIRWS the value was “inactive”. Then VNYSLQVNFVFRWARFKLWL, with “inactive”; and CVVNSGFNLSCMIVSQSVSL, with “inactive”; and PNVMNNFVCITDPIPVGSMW, with “inactive”.

With DSLSFGVVIFLYFKPGEFLY, the amyloid nucleation score result was “inactive”. SFSCVHDDCRKLLQLRLDST: the amyloid nucleation score entry is “inactive”. Then RLHVRCNCDLSDGVPRAVCE, with 0.599 ± 0.23; and RTMSSLLFQFDSFLKLIKSE, with “inactive”; and LPFIRV, with 0.007 ± 0.27. For the substance MRSYFEDFCGFQAIRS, the amyloid nucleation score is 1.07 ± 0.14. As for YYWCFSF, the amyloid nucleation score worked out at 2.23 ± 0.06. Regarding WGRGLRPTLVGMFARAHRGA, the amyloid nucleation score entry is “inactive”. For LRDTGWLIGLMCCSIQIGSG the value was 2.13 ± 0.069.

As to QCPKCDLLMRDSDIRFTHAG, the amyloid nucleation score entry was “inactive”. Regarding EPRGCYRQMLHKLIMS, the amyloid nucleation score entry is “inactive”. Then RMFLHLTRNKCVRVKKASQE, with “inactive”; and CLDARYKMRV, with “inactive”; and NCLLTFDQNYTRGIPAKI, with “inactive”.

Regarding IPHAARLCLMWIILWLI, the amyloid nucleation score entry was “inactive”. For NYNRAPMGTAET the value was “inactive”. For SFVQRVSLLMSVSVFETASS the value was “inactive”. Then TLVGTFYSMQRSDRIWR, with 0.475 ± 0.69; and MYTMSHSGLVLALFDAGSWR, with “inactive”; and DPYSDVQDKDTSDAGYASRV, with “inactive”. As for VFVSLISSMTIFTCFVPECE, the amyloid nucleation score is 3.28 ± 0.069. For the substance YTLMFNCRFALLFYYTFSYG, the amyloid nucleation score result was “inactive”. As for SWCWYMCSGLNIEIAKGLTR, the amyloid nucleation score entry is “inactive”.

Consider RLSQCRLLVFDGTQVFMCCV, for which the amyloid nucleation score came out at 2.01 ± 0.077. Take TEGAYRSW: the amyloid nucleation score result is “inactive”. In turn, AGLSQNRSRIRSY registered an amyloid nucleation score of -0.2 ± 0.81.

The record behind these values is the supplement of paper PMC12042874.
